Results: patent US20240245793A1 (UNIVERSITY OF COPENHAGEN, published 2024)
No end group written: not given here. OPEG4 = PEG4 linker (Xa = -O-, formula XXVI) joining two peptide copies; NPEG4 = not defined here

target: T1, PDZ1-2 of PSD-95 (postsynaptic density protein-95) (UniProt P78352 61-249, limits assumed); assay: FP competition against fluorescent dimeric probe, Ki from IC50
T1 construct: domain: PDZ1-2; also called PSD-95 PDZ1-2; PSD-95 PDZ12
T1 sequence (P78352 61-249 limits assumed): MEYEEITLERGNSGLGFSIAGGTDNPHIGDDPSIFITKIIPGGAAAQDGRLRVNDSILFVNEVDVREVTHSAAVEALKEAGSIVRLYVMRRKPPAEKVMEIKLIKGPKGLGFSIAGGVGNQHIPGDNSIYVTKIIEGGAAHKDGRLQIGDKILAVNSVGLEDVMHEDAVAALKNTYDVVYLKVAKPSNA

| Binder | Ki [nM] |
| --- | --- |
| compound 50, NPEG4-(IETDV)2 fused to L-DPV3 (Ac-RKKRRRESRKKRRRES-) (reading uncertain; also: two IETDV copies joined at their N-termini by the NPEG4 linker, CPP C-terminus linked to the NPEG4 nitrogen, printed as NPEG4-(IETDV)2 fused to L-DPV3 (Ac-RKKRRRESRKKRRRES-), Branched compound CPP-NPEG4-(P1)(P2), formula (XXVIII)) peptide: NPEG4-IETDV Ac-RKKRRRESRKKRRRES-NPEG4 | 16.6 |
| compound 52, NPEG4-(IETDV)2 fused to L-pVEC (Ac-LLIILRRRIRKQAHAHSK-) (reading uncertain; also: two IETDV copies joined at their N-termini by the NPEG4 linker, CPP C-terminus linked to the NPEG4 nitrogen, printed as NPEG4-(IETDV)2 fused to L-pVEC (Ac-LLIILRRRIRKQAHAHSK-), Branched compound CPP-NPEG4-(P1)(P2), formula (XXVIII)) peptide: NPEG4-IETDV Ac-LLIILRRRIRKQAHAHSK-NPEG4 | 13.3 |

target: T1, PDZ1-2 of PSD-95 (postsynaptic density …); assay: as above; remark: another data set of the same source

| Binder | Ki [nM] |
| --- | --- |
| compound 71, NPEG4-(KETLV)2 fused to L-Arg5 (Ac-RRRRR-) (reading uncertain; also: two KETLV copies joined at their N-termini by the NPEG4 linker, CPP C-terminus linked to the NPEG4 nitrogen, printed as NPEG4-(KETLV)2 fused to L-Arg5 (Ac-RRRRR-), Branched compound CPP-NPEG4-(P1)(P2), formula (XXVIII)) peptide: NPEG4-KETLV Ac-RRRRR-NPEG4 | 10.9 |
| compound 73, NPEG4-(KETLV)2 fused to L-Arg4 (Ac-RRRR-) (reading uncertain; also: two KETLV copies joined at their N-termini by the NPEG4 linker, CPP C-terminus linked to the NPEG4 nitrogen, printed as NPEG4-(KETLV)2 fused to L-Arg4 (Ac-RRRR-)) peptide: NPEG4-KETLV Ac-RRRR-NPEG4 | 11.1 |
| compound 67, NPEG4-(KETLV)2 fused to L-Arg7 (Ac-RRRRRRR-) (reading uncertain; also: two KETLV copies joined at their N-termini by the NPEG4 linker, CPP C-terminus linked to the NPEG4 nitrogen, printed as NPEG4-(KETLV)2 fused to L-Arg7 (Ac-RRRRRRR-), Branched compound CPP-NPEG4-(P1)(P2), formula (XXVIII)) peptide: NPEG4-KETLV Ac-RRRRRRR-NPEG4 | 5.8 |

target: T1, PDZ1-2 of PSD-95 (postsynaptic density …); assay: as above; remark: another data set of the same source

| Binder | Ki [nM] |
| --- | --- |
| OPEG4-ISTDV (also: dimer: two ISTDV copies joined at their N-termini by the OPEG4 linker, Dimer of formula (XXXIII), P1 = P2, no CPP) [compound 6, OPEG4-(ISTDV)2] | 53.1 |
| OPEG4-KETVV (also: dimer: two copies bridged at N-termini by OPEG4, Dimer of formula (XXXI), P1 = P2, no CPP) [compound 4, OPEG4-(KETVV)2] | 15.8 |
| OPEG4-KETLV (also: dimer: two copies bridged at N-termini by OPEG4, Dimer of formula (XXIX), P1 = P2, no CPP) [compound 2, OPEG4-(KETLV)2] | 11.1 |
| OPEG4-KETRV (also: dimer: two KETRV copies joined at their N-termini by the OPEG4 linker, Dimer of formula (XXXII), P1 = P2, no CPP) [compound 5, OPEG4-(KETRV)2] | 53.2 |
| OPEG4-VETVV (also: dimer: two VETVV copies joined at their N-termini by the OPEG4 linker, Dimer of formula (XXXIV), P1 = P2, no CPP) [compound 7, OPEG4-(VETVV)2] | 17 |

target: T1, PDZ1-2 of PSD-95 (postsynaptic density …); assay: as above; remark: another data set of the same source

| Binder | Ki [nM] |
| --- | --- |
| compound 27, NPEG4-(KETVV)2 fused to L-Arg9 (Ac-RRRRRRRRR-) (not fully specified (N-terminus, C-terminus); also: dimer: two copies bridged at N-termini by NPEG4, Arg9 C-terminus on NPEG4 nitrogen, Branched compound CPP-NPEG4-(P1)(P2), formula (XXVIII); also called formula (XIX)) peptide: KETVV Ac-RRRRRRRRR | 6.3 |
| compound 29, NPEG4-(KETRV)2 fused to L-Arg9 (Ac-RRRRRRRRR-) (not fully specified (N-terminus, C-terminus); also: dimer: two copies bridged at N-termini by NPEG4, Arg9 C-terminus on NPEG4 nitrogen, Branched compound CPP-NPEG4-(P1)(P2), formula (XXVIII); also called formula (XX)) peptide: KETRV Ac-RRRRRRRRR | 10.1 |
| compound 33, NPEG4-(VETVV)2 fused to L-Arg9 (Ac-RRRRRRRRR-) (not fully specified (N-terminus, C-terminus); also: dimer: two copies bridged at N-termini by NPEG4, Arg9 C-terminus on NPEG4 nitrogen, also called formula (XXII)) peptide: VETVV Ac-RRRRRRRRR | 19.9 |
| compound 25, NPEG4-(KETTV)2 fused to L-Arg9 (Ac-RRRRRRRRR-) (not fully specified (N-terminus, C-terminus); also: dimer: two copies bridged at N-termini by NPEG4, Arg9 C-terminus on NPEG4 nitrogen, Branched compound CPP-NPEG4-(P1)(P2), formula (XXVIII); also called formula (XVIII)) peptide: KETTV Ac-RRRRRRRRR | 5.6 |
| compound 31, NPEG4-(ISTDV)2 fused to L-Arg9 (Ac-RRRRRRRRR-) (not fully specified (N-terminus, C-terminus); also: dimer: two copies bridged at N-termini by NPEG4, Arg9 C-terminus on NPEG4 nitrogen, Branched compound CPP-NPEG4-(P1)(P2), formula (XXVIII); also called formula (XXI)) peptide: ISTDV Ac-RRRRRRRRR | 62.3 |
